Measured values from article PMC6026032.

Legend:
Details in all cases: glycan lost; control: wild type
[1] = co-IP from conditioned medium
[2] = native gel electrophoresis, HA immunoblot
[3] = immunoblot of HEK293T conditioned medium

Protein | oligomerisation [1] | oligomerisation [2] | expression_or_secretion [3]
Cbln4: Cbln4N26Q (protein) parent chain: MGSARRALSVVPAVLLILVLPVWAQNDTEPIVLEGKCLVVCDSNPATDSKGSSSSPLGISVRAANSKVAFSAVRSTNHEPSEMSNKTRIIYFDQILVNVGNFFTLESVFVAPRKGIYSFSFHVIKVYQSQTIQVNLMLNGKPVISAFAGDKDVTREAATNGVLLYLDKEDKVYLKLEKGNLLGGWQYSTFSGFLVFPL | no change | changes | 
Cbln4: Cbln4N85Q (protein) parent chain: MGSARRALSVVPAVLLILVLPVWAQNDTEPIVLEGKCLVVCDSNPATDSKGSSSSPLGISVRAANSKVAFSAVRSTNHEPSEMSNKTRIIYFDQILVNVGNFFTLESVFVAPRKGIYSFSFHVIKVYQSQTIQVNLMLNGKPVISAFAGDKDVTREAATNGVLLYLDKEDKVYLKLEKGNLLGGWQYSTFSGFLVFPL | no change | no change | 
Cbln1: N23Q (protein) parent chain: MLGVVELLLLGTAWLAGPARGQNETEPIVLEGKCLVVCDSNPTSDPTGTALGISVRSGSAKVAFSAIRSTNHEPSEMSNRTMIIYFDQVLVNIGNNFDSERSTFIAPRKGIYSFNFHVVKVYNRQTIQVSLMLNGWPVISAFAGDQDVTREAASNGVLIQMEKGDRAYLKLERGNLMGGWKYSTFSGFLVFPL |  |  | no change
Cbln1: Cbln1N23Q (protein) parent chain: MLGVVELLLLGTAWLAGPARGQNETEPIVLEGKCLVVCDSNPTSDPTGTALGISVRSGSAKVAFSAIRSTNHEPSEMSNRTMIIYFDQVLVNIGNNFDSERSTFIAPRKGIYSFNFHVVKVYNRQTIQVSLMLNGWPVISAFAGDQDVTREAASNGVLIQMEKGDRAYLKLERGNLMGGWKYSTFSGFLVFPL | no change | no change | 
Cbln1: N79Q (protein) parent chain: MLGVVELLLLGTAWLAGPARGQNETEPIVLEGKCLVVCDSNPTSDPTGTALGISVRSGSAKVAFSAIRSTNHEPSEMSNRTMIIYFDQVLVNIGNNFDSERSTFIAPRKGIYSFNFHVVKVYNRQTIQVSLMLNGWPVISAFAGDQDVTREAASNGVLIQMEKGDRAYLKLERGNLMGGWKYSTFSGFLVFPL |  |  | no change
Cbln1: Cbln1N79Q (protein) parent chain: MLGVVELLLLGTAWLAGPARGQNETEPIVLEGKCLVVCDSNPTSDPTGTALGISVRSGSAKVAFSAIRSTNHEPSEMSNRTMIIYFDQVLVNIGNNFDSERSTFIAPRKGIYSFNFHVVKVYNRQTIQVSLMLNGWPVISAFAGDQDVTREAASNGVLIQMEKGDRAYLKLERGNLMGGWKYSTFSGFLVFPL | no change | no change | 
Cbln2: N110Q (protein) parent chain: MPAPGQGPRGPLLSMPGRRGALREPADFGSSLGAVLALLLLLLPACCPVRAQNDTEPIVLEGKCLVVCDSSPSGDGAVTSSLGISVRSGSAKVAFSATRSTNHEPSEMSNRTMTIYFDQVLVNIGNHFDLASSIFVAPRKGIYSFSFHVVKVYNRQTIQVSLMQNGYPVISAFAGDQDVTREAASNGVLLLMEREDKVHLKLERGNLMGGWKYSTFSGFLVFPL |  |  | no change
Cbln2: Cbln2N110Q (protein) parent chain: MPAPGQGPRGPLLSMPGRRGALREPADFGSSLGAVLALLLLLLPACCPVRAQNDTEPIVLEGKCLVVCDSSPSGDGAVTSSLGISVRSGSAKVAFSATRSTNHEPSEMSNRTMTIYFDQVLVNIGNHFDLASSIFVAPRKGIYSFSFHVVKVYNRQTIQVSLMQNGYPVISAFAGDQDVTREAASNGVLLLMEREDKVHLKLERGNLMGGWKYSTFSGFLVFPL |  | no change | 
Cbln2: Cbln2N53Q (protein) parent chain: MPAPGQGPRGPLLSMPGRRGALREPADFGSSLGAVLALLLLLLPACCPVRAQNDTEPIVLEGKCLVVCDSSPSGDGAVTSSLGISVRSGSAKVAFSATRSTNHEPSEMSNRTMTIYFDQVLVNIGNHFDLASSIFVAPRKGIYSFSFHVVKVYNRQTIQVSLMQNGYPVISAFAGDQDVTREAASNGVLLLMEREDKVHLKLERGNLMGGWKYSTFSGFLVFPL |  | no change | 
